We go through 75 molecules from patent US20060099648A1, “Compositions and methods for epitope mapping” (priority 2000, published 2006).

To fix the notation:
B1: Peptide# 54 (peptide)
peptide: GGCDA
B2: Peptide# 26 (peptide)
peptide: EECKC
B3: Peptide# 29 (peptide)
peptide: KCLLN
B4: Peptide# 16 (peptide)
peptide: SGCFR
B5: Peptide# 41 (peptide)
peptide: CVENP
B6: Peptide# 45 (peptide)
peptide: PNPTC
B7: Peptide# 25 (peptide)
peptide: REECK
B8: Peptide# 39 (peptide)
peptide: DKCVE
B9: Peptide# 40 (peptide)
peptide: KCVEN
B10: Peptide# 21 (peptide)
peptide: HLDER
B11: Peptide# 75 (peptide)
peptide: TCECT
B12: Peptide# 69 (peptide)
peptide: SNGKK
B13: Peptide# 38 (peptide)
peptide: GDKCV
B14: Peptide# 52 (peptide)
peptide: NNGGC
B15: Peptide# 43 (peptide)
peptide: ENPNP
B16: Peptide# 66 (peptide)
peptide: DSGSN
B17: Peptide# 5 (peptide)
peptide: HQCVK
B18: Peptide# 13 (peptide)
peptide: PQNSG
B19: Peptide# 22 (peptide)
peptide: LDERE
B20: Peptide# 1 (peptide)
peptide: NISQH
B21: Peptide# 7 (peptide)
peptide: CVKKQ
B22: Peptide# 57 (peptide)
peptide: DADAK
B23: Peptide# 23 (peptide)
peptide: DEREE
B24: Peptide# 68 (peptide)
peptide: GSNGK
B25: Peptide# 44 (peptide)
peptide: NPNPT
B26: Peptide# 62 (peptide)
peptide: CTEED
B27: Peptide# 30 (peptide)
peptide: CLLNY
B28: Peptide# 77 (peptide)
peptide: ECTKP
B29: Peptide# 71 (peptide)
peptide: GKKIT
B30: Peptide# 70 (peptide)
peptide: NGKKI
B31: Peptide# 18 (peptide)
peptide: CFRHL
B32: Peptide# 63 (peptide)
peptide: TEEDS
B33: Peptide# 10 (peptide)
peptide: KQCPQ
B34: Peptide# 47 (peptide)
peptide: PTCNE
B35: Peptide# 51 (peptide)
peptide: ENNGG
B36: Peptide# 36 (peptide)
peptide: QEGDK
B37: Peptide# 49 (peptide)
peptide: CNENN
B38: Peptide# 35 (peptide)
peptide: KQEGD
B39: Peptide# 2 (peptide)
peptide: ISQHQ
B40: Peptide# 50 (peptide)
peptide: NENNG
B41: Peptide# 12 (peptide)
peptide: CPQNS
B42: Peptide# 11 (peptide)
peptide: QCPQN
B43: Peptide# 33 (peptide)
peptide: NYKQE
B44: Peptide# 55 (peptide)
peptide: GCDAD
B45: Peptide# 42 (peptide)
peptide: VENPN
B46: Peptide# 48 (peptide)
peptide: TCNEN
B47: Peptide# 37 (peptide)
peptide: EGDKC
B48: Peptide# 32 (peptide)
peptide: LNYKQ
B49: Peptide# 65 (peptide)
peptide: EDSGS
B50: Peptide# 19 (peptide)
peptide: FRHLD
B51: Peptide# 58 (peptide)
peptide: ADAKC
B52: Peptide# 76 (peptide)
peptide: CECTK
B53: Peptide# 27 (peptide)
peptide: ECKCL
B54: Peptide# 67 (peptide)
peptide: SGSNG
B55: Peptide# 14 (peptide)
peptide: QNSGC
B56: Peptide# 60 (peptide)
peptide: AKCTE
B57: Peptide# 31 (peptide)
peptide: LLNYK
B58: Peptide# 61 (peptide)
peptide: KCTEE
B59: Peptide# 3 (peptide)
peptide: SQHQC
B60: Peptide# 64 (peptide)
peptide: EEDSG
B61: Peptide# 73 (peptide)
peptide: KITCE
B62: Peptide# 24 (peptide)
peptide: EREEC
B63: Peptide# 17 (peptide)
peptide: GCFRH
B64: Peptide# 59 (peptide)
peptide: DAKCT
B65: Peptide# 4 (peptide)
peptide: QHQCV
B66: Peptide# 34 (peptide)
peptide: YKQEG
B67: Peptide# 72 (peptide)
peptide: KKITC
B68: Peptide# 28 (peptide)
peptide: CKCLL
B69: Peptide# 15 (peptide)
peptide: NSGCF
B70: Peptide# 6 (peptide)
peptide: QCVKK
B71: Peptide# 53 (peptide)
peptide: NGGCD
B72: Peptide# 56 (peptide)
peptide: CDADA
B73: Peptide# 46 (peptide)
peptide: NPTCN
B74: Peptide# 20 (peptide)
peptide: RHLDE
B75: Peptide# 74 (peptide)
peptide: ITCEC

The target of this experiment is Human IgG (Calbiochem; San Diego Calif.) (human). As to the kind of experiment: IgG displaced from peptide pin; competitor MSP1-19.
B1 had a ΔF (%) of less than 5%.
With B2 the figure was less than 5%; with B3, less than 5%; with B4, less than 5%.
On to B5, for which the ΔF (%) was less than 5%.
With B6 the figure was less than 5%.
With B7 the figure was less than 5%; with B8, less than 5%.
Molecule B9 showed a ΔF (%) of less than 5%.
With B10 the figure was less than 5%; with B11, 12%.
Take B12: the ΔF (%) is less than 5%.
Take B13: the ΔF (%) is less than 5%.
With B14, the ΔF (%) was found to be 6%.
With B15 the figure was less than 5%; with B16, 9%.
With B17 the figure was less than 5%; with B18, less than 5%.
With B19 the figure was less than 5%; with B20, less than 5%.
Turning to B21, the ΔF (%) is less than 5%.
With B22 the figure was less than 5%.
B23: the ΔF (%) is less than 5%.
In turn, B24 registered a ΔF (%) of less than 5%.
Regarding B25, the ΔF (%) is less than 5%.
As for B26, the ΔF (%) was less than 5%.
In turn, B27 returned a ΔF (%) of less than 5%.
With B28 the figure was 13%; with B29, 6%; with B30, 12%.
B31: the ΔF (%) was less than 5%.
With B32 the figure was less than 5%.
With B33 the figure was less than 5%; with B34, less than 5%; with B35, less than 5%.
With B36 the figure was less than 5%; with B37, 16%.
B38 gave a ΔF (%) of less than 5%.
With B39 the figure was less than 5%; with B40, 5%.
With B41 the figure was less than 5%; with B42, less than 5%.
With B43 the figure was less than 5%; with B44, 7%; with B45, less than 5%.
B46: the ΔF (%) was less than 5%.
With B47 the figure was less than 5%; with B48, less than 5%.
With B49 the figure was 7%.
With B50 the figure was less than 5%; with B51, less than 5%; with B52, less than 5%.
As to B53, the ΔF (%) was less than 5%.
With B54 the figure was less than 5%; with B55, less than 5%; with B56, 5%.
On to B57, for which the ΔF (%) is less than 5%.
On to B58, for which the ΔF (%) was found to be 6%.
Consider B59, for which the ΔF (%) was less than 5%.
On to B60, for which the ΔF (%) came to 7%.
With B61 the figure was 7%; with B62, less than 5%.
With B63 the figure was less than 5%; with B64, less than 5%; with B65, less than 5%.
With B66 the figure was less than 5%; with B67, 9%; with B68, less than 5%.
B69 returned a ΔF (%) of less than 5%.
With B70 the figure was less than 5%; with B71, 10%.
With B72 the figure was less than 5%; with B73, less than 5%.
With B74 the figure was less than 5%.
As to B75, the ΔF (%) amounted to 5%.
